Reference: US12338277

How the values were obtained:
Assay in all cases: cell-based or functional assay
[1] = target: HIV-1 Env of pseudovirus QH0692.42 (HIV-1)
[2] = target: HIV-1 envelope of pseudovirus 0260.v5.c36 (HIV-1)
[3] = target: HIV-1 envelope spike of pseudovirus PVO.4 (HIV-1)
[4] = target: HIV-1 envelope of pseudovirus 620345.c01 (HIV-1)
[5] = target: HIV-1 Env of pseudovirus 89-F1_2_25 (HIV-1)
[6] = target: HIV-1 Env of pseudovirus 6041.v3.c23 (HIV-1)
[7] = target: HIV-1 envelope of pseudovirus MS208.A1 (HIV-1)
[8] = target: HIV-1 Env of pseudovirus HIV-16055-2.3 (HIV-1)
[9] = target: HIV-1 Env of pseudovirus ZM214M.PL15 (HIV-1)
[10] = target: HIV-1 Env of pseudovirus BJOX028000.10.3 (HIV-1)
[11] = target: HIV-1 envelope spike of pseudovirus SS1196.1 (HIV-1)
[12] = target: HIV-1 envelope of pseudovirus C1080.c03 (HIV-1)
[13] = target: HIV-1 Env of pseudovirus Ce703010054_2A2 (HIV-1)
[14] = target: HIV-1 Env of pseudovirus 9004SS_A3_4 (HIV-1)
[15] = target: HIV-1 envelope of pseudovirus ZM249M.PL1 (HIV-1)
[16] = target: HIV-1 envelope of pseudovirus Ce0393_C3 (HIV-1)
[17] = target: HIV-1 envelope of pseudovirus Ce1086_B2 (HIV-1)
[18] = target: HIV-1 Env of pseudovirus 3103.v3.c10 (HIV-1)
[19] = target: HIV-1 envelope of pseudovirus 211-9 (HIV-1)
[20] = target: HIV-1 envelope of pseudovirus 263-8 (HIV-1)
[21] = target: HIV-1 envelope of pseudovirus ZM135M.PL10a (HIV-1)
[22] = target: HIV-1 Env of pseudovirus 3365.v2.c2 (HIV-1)
[23] = target: HIV-1 Env of pseudovirus Q259.d2.17 (HIV-1)
[24] = target: HIV-1 Env of pseudovirus BJOX025000.01.1 (HIV-1)
[25] = target: HIV-1 envelope of pseudovirus CNE30 (HIV-1)
[26] = target: HIV-1 envelope of pseudovirus 6811.v7.c18 (HIV-1)
[27] = target: HIV-1 envelope spike of pseudovirus SC422661.8 (HIV-1)
[28] = target: HIV-1 Env of pseudovirus C1080.c03 (HIV-1)
[29] = target: HIV-1 Env of pseudovirus 0260.v5.c36 (HIV-1)
[30] = target: HIV-1 Env of pseudovirus Ce0393_C3 (HIV-1)
[31] = target: HIV-1 envelope of pseudovirus A07412M1.vrc12 (HIV-1)
[32] = target: HIV-1 envelope of pseudovirus 191084 B7-19 (HIV-1)
[33] = target: HIV-1 Env of pseudovirus 6240_08_TA5_4622 (HIV-1)
[34] = target: HIV-1 envelope of pseudovirus 6244_13_85_4576 (HIV-1)
[35] = target: HIV-1 Env of pseudovirus CNE30 (HIV-1)
[36] = target: HIV-1 Env of pseudovirus T255-34 (HIV-1)
[37] = target: HIV-1 envelope of pseudovirus 246F C1G (HIV-1)
[38] = target: HIV-1 Env of pseudovirus CNE58 (HIV-1)
[39] = target: HIV-1 Env of pseudovirus ZM135M.PL10a (HIV-1)
[40] = target: HIV-1 envelope of pseudovirus Ce0682_E4 (HIV-1)
[41] = target: HIV-1 Env of pseudovirus X1632_S2_B10 (HIV-1)
[42] = target: HIV-1 Env of pseudovirus ZM233M.PB6 (HIV-1)
[43] = target: HIV-1 envelope of pseudovirus RHPA4259.7 (HIV-1)
[44] = target: HIV-1 envelope of pseudovirus ZM109F.PB4 (HIV-1)
[45] = target: HIV-1 envelope of pseudovirus BJOX009000.02.4 (HIV-1)
[46] = target: HIV-1 envelope of pseudovirus AC10.0.29 (HIV-1)
[47] = target: HIV-1 Env of pseudovirus 6545.v4.c1 (HIV-1)
[48] = target: HIV-1 envelope of pseudovirus Ce1176_A3 (HIV-1)
[49] = target: HIV-1 envelope of pseudovirus X1254_c3 (HIV-1)
[50] = target: HIV-1 Env of pseudovirus T251-18 (HIV-1)

10-996 (antibody), sequence (VH): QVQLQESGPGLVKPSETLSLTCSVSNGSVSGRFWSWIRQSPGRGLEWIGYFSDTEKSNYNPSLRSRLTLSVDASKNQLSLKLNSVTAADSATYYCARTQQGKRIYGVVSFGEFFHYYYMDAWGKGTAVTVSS
10-996 (antibody), sequence (VL): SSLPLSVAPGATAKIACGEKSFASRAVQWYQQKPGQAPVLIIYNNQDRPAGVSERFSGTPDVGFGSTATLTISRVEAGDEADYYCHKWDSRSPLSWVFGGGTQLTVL
10-1074 (antibody), sequence (VH): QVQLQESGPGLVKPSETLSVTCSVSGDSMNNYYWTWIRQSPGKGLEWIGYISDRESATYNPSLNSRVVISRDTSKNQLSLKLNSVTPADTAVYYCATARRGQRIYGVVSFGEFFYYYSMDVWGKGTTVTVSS
10-1074 (antibody), sequence (V domain): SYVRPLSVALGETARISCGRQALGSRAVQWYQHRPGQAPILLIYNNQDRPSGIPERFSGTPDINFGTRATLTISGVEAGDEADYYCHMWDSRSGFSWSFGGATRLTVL

10-996 (antibody)
IC80 (TZM-bl neutralization) [1]: 1.85 µg/mL
IC50 (TZM-bl neutralization) [2]: 0.16 µg/mL
IC50 (TZM-bl neutralization assay) [3]: 0.211 µg/mL
IC80 (TZM-bl neutralization assay) [3]: 1.72 µg/mL
IC50 (TZM-bl neutralization) [4]: > 50 µg/mL
IC80 (TZM-bl neutralization) [5]: > 50 µg/mL
IC80 (TZM-bl neutralization) [6]: > 50 µg/mL
IC50 (TZM-bl neutralization) [7]: > 50 µg/mL
IC80 (TZM-bl neutralization) [8]: > 50 µg/mL
IC80 (TZM-bl neutralization) [9]: 3.25 µg/mL
IC80 (TZM-bl neutralization) [10]: > 50 µg/mL
IC50 (TZM-bl neutralization assay) [11]: 0.007 µg/mL
IC80 (TZM-bl neutralization assay) [11]: 0.04 µg/mL
IC50 (TZM-bl neutralization) [12]: > 50 µg/mL
IC80 (TZM-bl neutralization) [13]: > 50 µg/mL
IC80 (TZM-bl neutralization) [14]: 0.05 µg/mL
IC50 (TZM-bl neutralization) [15]: > 50 µg/mL
IC50 (TZM-bl neutralization) [16]: > 50 µg/mL
IC50 (TZM-bl neutralization) [17]: > 50 µg/mL
IC80 (TZM-bl neutralization) [18]: 0.15 µg/mL
IC50 (TZM-bl neutralization) [19]: 0.75 µg/mL
IC50 (TZM-bl neutralization) [20]: 10.9 µg/mL
IC50 (TZM-bl neutralization) [21]: 0.099 µg/mL
IC80 (TZM-bl neutralization) [22]: 1.38 µg/mL
IC80 (TZM-bl neutralization) [23]: > 50 µg/mL
IC80 (TZM-bl neutralization) [24]: > 50 µg/mL
IC50 (TZM-bl neutralization) [25]: 0.614 µg/mL
IC50 (TZM-bl neutralization) [26]: 0.001 µg/mL
IC50 (TZM-bl neutralization assay) [27]: 0.255 µg/mL
IC80 (TZM-bl neutralization assay) [27]: 0.845 µg/mL
IC80 (TZM-bl neutralization) [28]: > 50 µg/mL
IC80 (TZM-bl neutralization) [29]: 0.436 µg/mL
IC80 (TZM-bl neutralization) [30]: > 50 µg/mL
IC50 (TZM-bl neutralization) [31]: 0.008 µg/mL
IC50 (TZM-bl neutralization) [32]: 0.057 µg/mL
IC80 (TZM-bl neutralization) [33]: 0.348 µg/mL
IC50 (TZM-bl neutralization) [34]: 0.353 µg/mL
IC80 (TZM-bl neutralization) [35]: 1.99 µg/mL
IC80 (TZM-bl neutralization) [36]: > 50 µg/mL
IC50 (TZM-bl neutralization) [37]: 0.092 µg/mL
IC80 (TZM-bl neutralization) [38]: 2.22 µg/mL
IC80 (TZM-bl neutralization) [39]: 0.553 µg/mL
IC50 (TZM-bl neutralization) [40]: > 50 µg/mL
IC80 (TZM-bl neutralization) [41]: > 50 µg/mL
IC80 (TZM-bl neutralization) [42]: 4.52 µg/mL
IC50 (TZM-bl neutralization) [43]: 0.034 µg/mL
IC50 (TZM-bl neutralization) [44]: > 50 µg/mL
IC50 (TZM-bl neutralization) [45]: > 50 µg/mL
IC50 (TZM-bl neutralization) [46]: 0.067 µg/mL
IC80 (TZM-bl neutralization) [47]: > 50 µg/mL
IC50 (TZM-bl neutralization) [48]: 0.043 µg/mL
IC50 (TZM-bl neutralization) [49]: 0.121 µg/mL
IC80 (TZM-bl neutralization) [50]: 7.4 µg/mL

10-1074 (antibody)
IC80 (TZM-bl neutralization) [1]: 0.929 µg/mL
IC50 (TZM-bl neutralization) [2]: 0.099 µg/mL
IC50 (TZM-bl neutralization assay) [3]: 0.178 µg/mL
IC80 (TZM-bl neutralization assay) [3]: 0.766 µg/mL
IC50 (TZM-bl neutralization) [4]: > 50 µg/mL
IC80 (TZM-bl neutralization) [5]: > 50 µg/mL
IC80 (TZM-bl neutralization) [6]: > 50 µg/mL
IC50 (TZM-bl neutralization) [7]: > 50 µg/mL
IC80 (TZM-bl neutralization) [8]: > 50 µg/mL
IC80 (TZM-bl neutralization) [9]: 2.37 µg/mL
IC80 (TZM-bl neutralization) [10]: > 50 µg/mL
IC50 (TZM-bl neutralization assay) [11]: 0.01 µg/mL
IC80 (TZM-bl neutralization assay) [11]: 0.127 µg/mL
IC50 (TZM-bl neutralization) [12]: > 50 µg/mL
IC80 (TZM-bl neutralization) [13]: > 50 µg/mL
IC80 (TZM-bl neutralization) [14]: 0.03 µg/mL
IC50 (TZM-bl neutralization) [15]: > 50 µg/mL
IC50 (TZM-bl neutralization) [16]: > 50 µg/mL
IC50 (TZM-bl neutralization) [17]: > 50 µg/mL
IC80 (TZM-bl neutralization) [18]: 0.101 µg/mL
IC50 (TZM-bl neutralization) [19]: 0.112 µg/mL
IC50 (TZM-bl neutralization) [20]: 0.666 µg/mL
IC50 (TZM-bl neutralization) [21]: 0.069 µg/mL
IC80 (TZM-bl neutralization) [22]: 0.45 µg/mL
IC80 (TZM-bl neutralization) [23]: > 50 µg/mL
IC80 (TZM-bl neutralization) [24]: > 50 µg/mL
IC50 (TZM-bl neutralization) [25]: 0.363 µg/mL
IC50 (TZM-bl neutralization) [26]: 0.002 µg/mL
IC50 (TZM-bl neutralization assay) [27]: 0.145 µg/mL
IC80 (TZM-bl neutralization assay) [27]: 0.392 µg/mL
IC80 (TZM-bl neutralization) [28]: > 50 µg/mL
IC80 (TZM-bl neutralization) [29]: 0.16 µg/mL
IC80 (TZM-bl neutralization) [30]: > 50 µg/mL
IC50 (TZM-bl neutralization) [31]: < 0.001 µg/mL
IC50 (TZM-bl neutralization) [32]: 0.032 µg/mL
IC80 (TZM-bl neutralization) [33]: 0.306 µg/mL
IC50 (TZM-bl neutralization) [34]: 0.202 µg/mL
IC80 (TZM-bl neutralization) [35]: 1.2 µg/mL
IC80 (TZM-bl neutralization) [36]: > 50 µg/mL
IC50 (TZM-bl neutralization) [37]: 0.022 µg/mL
IC80 (TZM-bl neutralization) [38]: 0.968 µg/mL
IC80 (TZM-bl neutralization) [39]: 0.367 µg/mL
IC50 (TZM-bl neutralization) [40]: > 50 µg/mL
IC80 (TZM-bl neutralization) [41]: > 50 µg/mL
IC80 (TZM-bl neutralization) [42]: 0.349 µg/mL
IC50 (TZM-bl neutralization) [43]: 0.021 µg/mL
IC50 (TZM-bl neutralization) [44]: > 50 µg/mL
IC50 (TZM-bl neutralization) [45]: > 50 µg/mL
IC50 (TZM-bl neutralization) [46]: 0.022 µg/mL
IC80 (TZM-bl neutralization) [47]: > 50 µg/mL
IC50 (TZM-bl neutralization) [48]: 0.018 µg/mL
IC50 (TZM-bl neutralization) [49]: 0.089 µg/mL
IC80 (TZM-bl neutralization) [50]: 7.39 µg/mL
